The supplement of paper PMC10567573

B1: GALNT9 (parent)
chain: FTQSGPIVSRATGRCLEVEMSKDA
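Note: lentivirally expressed fusions sorted by FACS into six bins by GFP to DsRed ratio, PSI derived from sequencing read proportions per bin multiplied by bin number.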

Variants of: B1
Assay: protein stability index of a GFP-peptide fusion (GPS, HEK-293T) (PSI 1-6); higher = more stable
Settings: c terminus: a fixed tail appended
In the case of FTQSGPIISRATGRCLEVEMSKDA, the protein stability index is reported as 2.54.
In the case of FTQSGPIMSRATGRCLEVEMSKDA, the protein stability index is reported as 2.38.
With FTQSGPINSRATGRCLEVEMSKDA the protein stability index was 2.03.
With FTQSGPIPSRATGRCLEVEMSKDA the protein stability index was 2.07.
For FTQSGPIQSRATGRCLEVEMSKDA, the protein stability index was 2.25.
Work on FTQSGPIRSRATGRCLEVEMSKDA yielded a protein stability index of 1.83.
For FTQSGPISSRATGRCLEVEMSKDA, the protein stability index was 3.41.
In the case of FTQSGPITSRATGRCLEVEMSKDA, the protein stability index is reported as 1.42.
Variant FTQSGPIWSRATGRCLEVEMSKDA has a protein stability index of 3.04.
With FTQSGPIVARATGRCLEVEMSKDA the protein stability index was 4.78.
FTQSGPIVCRATGRCLEVEMSKDA gave a protein stability index of 2.17.
FTQSGPIVDRATGRCLEVEMSKDA gave a protein stability index of 2.99.
FTQSGPIVERATGRCLEVEMSKDA gave a protein stability index of 2.2.
Variant FTQSGPIVFRATGRCLEVEMSKDA has a protein stability index of 2.88.
For FTQSGPIVGRATGRCLEVEMSKDA, the protein stability index was 2.76.
In the case of FTQSGPIVHRATGRCLEVEMSKDA, the protein stability index is reported as 1.67.
With FTQSGPIVLRATGRCLEVEMSKDA the protein stability index was 2.43.
Variant FTQSGPIVMRATGRCLEVEMSKDA has a protein stability index of 2.28.
With FTQSGPIVNRATGRCLEVEMSKDA the protein stability index was 2.06.
FTQSGPIVPRATGRCLEVEMSKDA showed a protein stability index of 2.05.
FTQSGPIVTRATGRCLEVEMSKDA showed a protein stability index of 1.92.
FTQSGPIVSAATGRCLEVEMSKDA showed a protein stability index of 2.41.
FTQSGPIVSCATGRCLEVEMSKDA gave a protein stability index of 2.33.
FTQSGPIVSDATGRCLEVEMSKDA gave a protein stability index of 3.87.
FTQSGPIVSEATGRCLEVEMSKDA showed a protein stability index of 3.91.
For FTQSGPIVSFATGRCLEVEMSKDA, the protein stability index was 1.41.
FTQSGPIVSGATGRCLEVEMSKDA gave a protein stability index of 2.89.
Work on FTQSGPIVSHATGRCLEVEMSKDA yielded a protein stability index of 2.37.
FTQSGPIVSIATGRCLEVEMSKDA gave a protein stability index of 1.53.
FTQSGPIVSKATGRCLEVEMSKDA showed a protein stability index of 2.65.
Variant FTQSGPIVSLATGRCLEVEMSKDA has a protein stability index of 2.77.
With FTQSGPIVSMATGRCLEVEMSKDA the protein stability index was 1.48.
FTQSGPIVSNATGRCLEVEMSKDA gave a protein stability index of 2.01.
FTQSGPIVSPATGRCLEVEMSKDA gave a protein stability index of 2.49.
In the case of FTQSGPIVSQATGRCLEVEMSKDA, the protein stability index is reported as 3.02.
For FTQSGPIVSSATGRCLEVEMSKDA, the protein stability index was 3.5.
With FTQSGPIVSTATGRCLEVEMSKDA the protein stability index was 2.5.
For FTQSGPIVSVATGRCLEVEMSKDA, the protein stability index was 2.6.
With FTQSGPIVSYATGRCLEVEMSKDA the protein stability index was 2.44.
For FTQSGPIVSRDTGRCLEVEMSKDA, the protein stability index was 3.15.
FTQSGPIVSRFTGRCLEVEMSKDA gave a protein stability index of 1.06.
FTQSGPIVSRGTGRCLEVEMSKDA showed a protein stability index of 1.95.
FTQSGPIVSRITGRCLEVEMSKDA showed a protein stability index of 1.67.
FTQSGPIVSRKTGRCLEVEMSKDA gave a protein stability index of 1.83.
Work on FTQSGPIVSRMTGRCLEVEMSKDA yielded a protein stability index of 1.73.
With FTQSGPIVSRPTGRCLEVEMSKDA the protein stability index was 2.31.
Work on FTQSGPIVSRRTGRCLEVEMSKDA yielded a protein stability index of 1.65.
In the case of FTQSGPIVSRSTGRCLEVEMSKDA, the protein stability index is reported as 1.77.
FTQSGPIVSRTTGRCLEVEMSKDA showed a protein stability index of 2.24.
Variant FTQSGPIVSRYTGRCLEVEMSKDA has a protein stability index of 3.67.
FTQSGPIVSRAAGRCLEVEMSKDA gave a protein stability index of 3.14.
Variant FTQSGPIVSRADGRCLEVEMSKDA has a protein stability index of 2.38.
Work on FTQSGPIVSRAEGRCLEVEMSKDA yielded a protein stability index of 3.19.
With FTQSGPIVSRAHGRCLEVEMSKDA the protein stability index was 1.58.
FTQSGPIVSRAIGRCLEVEMSKDA gave a protein stability index of 1.89.
FTQSGPIVSRAKGRCLEVEMSKDA showed a protein stability index of 2.15.
Variant FTQSGPIVSRALGRCLEVEMSKDA has a protein stability index of 1.64.
In the case of FTQSGPIVSRAMGRCLEVEMSKDA, the protein stability index is reported as 1.48.
FTQSGPIVSRANGRCLEVEMSKDA showed a protein stability index of 2.4.
FTQSGPIVSRAPGRCLEVEMSKDA gave a protein stability index of 2.05.
FTQSGPIVSRAQGRCLEVEMSKDA showed a protein stability index of 1.56.
With FTQSGPIVSRARGRCLEVEMSKDA the protein stability index was 2.04.
Variant FTQSGPIVSRASGRCLEVEMSKDA has a protein stability index of 1.78.
FTQSGPIVSRAVGRCLEVEMSKDA showed a protein stability index of 1.51.
FTQSGPIVSRAYGRCLEVEMSKDA showed a protein stability index of 2.47.
Variant FTQSGPIVSRATARCLEVEMSKDA has a protein stability index of 1.86.
With FTQSGPIVSRATDRCLEVEMSKDA the protein stability index was 3.13.
FTQSGPIVSRATERCLEVEMSKDA gave a protein stability index of 2.76.
Variant FTQSGPIVSRATFRCLEVEMSKDA has a protein stability index of 2.15.
In the case of FTQSGPIVSRATHRCLEVEMSKDA, the protein stability index is reported as 1.99.
FTQSGPIVSRATIRCLEVEMSKDA showed a protein stability index of 1.14.
For FTQSGPIVSRATKRCLEVEMSKDA, the protein stability index was 1.91.
In the case of FTQSGPIVSRATMRCLEVEMSKDA, the protein stability index is reported as 1.45.
With FTQSGPIVSRATNRCLEVEMSKDA the protein stability index was 2.41.
In the case of FTQSGPIVSRATPRCLEVEMSKDA, the protein stability index is reported as 1.81.
FTQSGPIVSRATQRCLEVEMSKDA showed a protein stability index of 1.55.
FTQSGPIVSRATRRCLEVEMSKDA showed a protein stability index of 2.6.
Work on FTQSGPIVSRATSRCLEVEMSKDA yielded a protein stability index of 1.76.
For FTQSGPIVSRATTRCLEVEMSKDA, the protein stability index was 2.16.
Work on FTQSGPIVSRATVRCLEVEMSKDA yielded a protein stability index of 1.81.
With FTQSGPIVSRATYRCLEVEMSKDA the protein stability index was 4.09.
FTQSGPIVSRATGACLEVEMSKDA gave a protein stability index of 2.84.
FTQSGPIVSRATGCCLEVEMSKDA gave a protein stability index of 1.78.
FTQSGPIVSRATGECLEVEMSKDA gave a protein stability index of 3.03.
In the case of FTQSGPIVSRATGFCLEVEMSKDA, the protein stability index is reported as 1.61.
With FTQSGPIVSRATGHCLEVEMSKDA the protein stability index was 2.06.
FTQSGPIVSRATGICLEVEMSKDA showed a protein stability index of 2.78.
FTQSGPIVSRATGKCLEVEMSKDA gave a protein stability index of 1.95.
Variant FTQSGPIVSRATGLCLEVEMSKDA has a protein stability index of 1.9.
FTQSGPIVSRATGNCLEVEMSKDA showed a protein stability index of 2.88.
FTQSGPIVSRATGPCLEVEMSKDA gave a protein stability index of 3.1.
Variant FTQSGPIVSRATGSCLEVEMSKDA has a protein stability index of 1.98.
In the case of FTQSGPIVSRATGTCLEVEMSKDA, the protein stability index is reported as 1.99.
For FTQSGPIVSRATGVCLEVEMSKDA, the protein stability index was 1.71.
